# Results reported in patent US20250152746A1, “BASE EDITING OF ANGPTL3 AND METHODS OF USING SAME FOR TREATMENT OF DISEASE” (Verve Therapeutics, Inc., priority 2020, published 2025).
# In the oligonucleotide strings, read from the 5' end, every base follows the letter of its sugar. An asterisk marks phosphorothioate; unmarked linkages are phosphodiester. Other units and linkages are bracketed, terminal groups are in braces. A string of capitals states the bases alone. m = 2'-O-methyl; r = 2'-OH (RNA)
# Assays:
# PCSK9 gene [1] = assay: PCSK9 gRNA/SpCas9 editing in primary cynomolgus hepatocytes (Tables 2, 22); type: cell-based, cynomolgus monkey; settings: SpCas9 mRNA MS002 1:1 by weight; for Cyno Primary Hepatocyte Editing % 100: 100 ng/RNA/mL; for Cyno Primary Hepatocyte Editing % 500: 500 ng/RNA/mL; for Cyno Primary Hepatocyte Editing % 2500: 2500 ng/RNA/mL
# PCSK9 gene [2] = assay: PCSK9 gRNA/SpCas9 editing in primary human hepatocytes (Tables 2, 4); type: cell-based; settings: SpCas9 mRNA MS002 1:1 by weight; for Human Primary Hepatocyte Editing % 100: 100 ng/RNA/mL; for Human Primary Hepatocyte Editing % 500: 500 ng/RNA/mL; for Human Primary Hepatocyte Editing % 2500: 2500 ng/RNA/mL
# Method: In set of experiments, PCSK9 gRNAs were co-transfected with an equivalent amount (1:1 ratio by weight) of in vitro transcribed commercially available SpCas9 mRNA MS002 purchased from TriLink Biotechnologies into primary human hepatocytes at 2500, 500, or 100 ng/RNA/mL and processed as described in detailed methods. Extracted genomic DNA was analyzed for gene editing at the target site with next-generation sequencing of PCR amplicons generated around the target sites. Samples were prepared using the Nextera XT DNA library preparation kit (Illumina) according to the manufacturer's protocol. Briefly, two rounds of PCR were performed first to amplify the region of interest and second to add DNA sequences required for next generation sequencing and sample identification to the initial product. The final amplicon was sequenced on the Illumina MiSeq instrument according to the manufacturer's protocol. A wide range of editing activities (Table 2) were observed. In a second set of experiments, ANGPTL3 gRNAs were co-transfected with an equivalent amount of in vitro transcribed SpCas9 mRNA (1:1 ratio by weight) into primary human hepatocytes and processed and analyzed similarly (Table 3).
# PCSK9 gRNAs were co-transfected with an equivalent amount of in vitro transcribed SpCas9 mRNA MS002 (1:1 ratio by weight) into primary human hepatocytes and processed as described in detailed methods. A wide range of editing activities were observed (Table 4; ND=Not determined). The guides with the highest editing activity at five days post transfection were GA001, GA002, GA007, and GA008.
# Human primary hepatocytes were transfected at 2500, 1250, 500, and 250 ng/test article/mL with SpCas9 mRNA MS002 and a gRNA targeting PCSK9 with modifications to the tracr. Genomic DNA was processed, sequenced, and analyzed as described in the detailed methods section. GA156 was transfected to serve as a positive control.
# Plating, culturing, and transfection of primary hepatocytes. Primary human liver hepatocytes (PHH) and primary cynomolgus liver hepatocytes (PCH) from BioIVT were cultured per the manufacturer's protocol. Briefly, primary human hepatocytes and primary cyno hepatocytes were obtained as frozen aliquots from BioIVT. Four lots of primary human hepatocytes, each derived from a de-identified individual donor, were used for the experiments: STL (main donor) was used for all experiments, including screening experiments and off-target experiments; HLY, JLP, and TLY were used for off-target experiments. The HFG lot of primary cyno hepatocytes were used for experiments. Following the manufacturer's instructions, cells were thawed and rinsed prior to plating in 24-well plates that had been coated with bovine collagen overnight, with a density of approximate 350,000 cells/well in INVITROGRO hepatocyte medium supplemented with TORPEDO antibiotic mix (BioIVT). The cells were thawed and resuspended in hepatocyte thawing medium followed by centrifugation at 100 g for 10 min at 4° C. The supernatant was discarded, and the pelleted cells resuspended in hepatocyte plating medium. Each vial contains approximately 5 million cells that were used for plating one 24-well plate. Plated cells were allowed to settle and adhere for 4-6 h in a tissue culture incubator at 37° C. under 5% CO2 atmosphere. After incubation, cells were checked for monolayer formation. The incubating media were then replaced with fresh hepatocyte maintenance media (complete INVITROGRO medium obtained from BioIVT, the cell line provider). The cells thus became ready for transfection. Each of the gRNAs were co-transfected with an equivalent amount of in vitro transcribed ABE8.8 mRNA (1:1 ratio by molecular weight) into primary human hepatocytes via MessengerMax reagent (Lipofectamine), using various dilutions to assess for editing activity at different concentrations of test article. MessengerMAX from Thermo Fisher is used for transfection. […]
Molecule,Cyno Primary Hepatocyte Editing % 100 (PCSK9 gene [1]) [%],Cyno Primary Hepatocyte Editing % 500 (PCSK9 gene [1]) [%],Cyno Primary Hepatocyte Editing % 2500 (PCSK9 gene [1]) [%],Human Primary Hepatocyte Editing % 100 (PCSK9 gene [2]) [%],Human Primary Hepatocyte Editing % 500 (PCSK9 gene [2]) [%],Human Primary Hepatocyte Editing % 2500 (PCSK9 gene [2]) [%]
GA192: PCSK9 gRNA; protospacer CCATGTCGACTACATCGAGG (SEQ ID NO: 186) (nucleic acid) guide: mC*mC*mA*rUrGrUrCrGrArCrUrArCrArUrCrGrArGrGrGrUrUrUrUrArGrArGrCrUrArGrArArArUrArGrCrArArGrUrUrArArArArUrArArGrGrCrUrArGrUrCrCrGrUrUrArUrCrArArCrUrUrGrArArArArArGrUrGrGrCrArCrCrGrArGrUrCrGrGrUrGrCrU*mU*mU*mU,0.60,1.50,10.26,1.14,6.02,16.7
GA189: PCSK9 gRNA; protospacer TCCTCGATGTAGTCGACATG (SEQ ID NO: 183) (nucleic acid) guide: mU*mC*mC*rUrCrGrArUrGrUrArGrUrCrGrArCrArUrGrGrUrUrUrUrArGrArGrCrUrArGrArArArUrArGrCrArArGrUrUrArArArArUrArArGrGrCrUrArGrUrCrCrGrUrUrArUrCrArArCrUrUrGrArArArArArGrUrGrGrCrArCrCrGrArGrUrCrGrGrUrGrCrU*mU*mU*mU,3.30,15.58,41.70,1.76,8.94,31.23
"GA198: PCSK9 gRNA; protospacer CCACCGGGAAATCGAGGGCA (SEQ ID NO: 192) (nucleic acid, sugars from the 5' end m3 r94 m3, linkages s3 o93 s3 (s phosphorothioate, o phosphodiester), T or U not given here) guide: CCACCGGGAAAUCGAGGGCAGUUUUAGAGCUAGAAAUAGCAAGUUAAAAUAAGGCUAGUCCGUUAUCAACUUGAAAAAGUGGCACCGAGUCGGUGCUUUU",3.53,16.15,49,0.04,10.58,30.93
GA191: PCSK9 gRNA; protospacer GCCCCATGTCGACTACATCG (SEQ ID NO: 185) (nucleic acid) guide: mG*mC*mC*rCrCrArUrGrUrCrGrArCrUrArCrArUrCrGrGrUrUrUrUrArGrArGrCrUrArGrArArArUrArGrCrArArGrUrUrArArArArUrArArGrGrCrUrArGrUrCrCrGrUrUrArUrCrArArCrUrUrGrArArArArArGrUrGrGrCrArCrCrGrArGrUrCrGrGrUrGrCrU*mU*mU*mU,5.46,26.79,51.79,3,12.2,34.6
GA157: PCSK9 gRNA; protospacer GCCGTCCTCCTCGGAACGCA (SEQ ID NO: 151) (nucleic acid) guide: mG*mC*mC*rGrUrCrCrUrCrCrUrCrGrGrArArCrGrCrArGrUrUrUrUrArGrArGrCrUrArGrArArArUrArGrCrArArGrUrUrArArArArUrArArGrGrCrUrArGrUrCrCrGrUrUrArUrCrArArCrUrUrGrArArArArArGrUrGrGrCrArCrCrGrArGrUrCrGrGrUrGrCrU*mU*mU*mU,0.78,2.93,13.78,0.62,2.82,10.03
"GA193: PCSK9 gRNA; protospacer GGGGCTGGTATTCATCCGCC (SEQ ID NO: 187) (nucleic acid, sugars from the 5' end m3 r94 m3, linkages s3 o93 s3 (s phosphorothioate, o phosphodiester), T or U not given here) guide: GGGGCUGGUAUUCAUCCGCCGUUUUAGAGCUAGAAAUAGCAAGUUAAAAUAAGGCUAGUCCGUUAUCAACUUGAAAAAGUGGCACCGAGUCGGUGCUUUU",8.70,32.02,52.89,3.92,15.68,35.77
"GA197: PCSK9 gRNA; protospacer AGTGACCACCGGGAAATCGA (SEQ ID NO: 191) (nucleic acid, sugars from the 5' end m3 r94 m3, linkages s3 o93 s3 (s phosphorothioate, o phosphodiester), T or U not given here) guide: AGUGACCACCGGGAAAUCGAGUUUUAGAGCUAGAAAUAGCAAGUUAAAAUAAGGCUAGUCCGUUAUCAACUUGAAAAAGUGGCACCGAGUCGGUGCUUUU",0.9,3.89,18.21,1.22,3.29,15.03
"GA194: PCSK9 gRNA; protospacer GTCGACATGGGGCAACTTCA (SEQ ID NO: 188) (nucleic acid, sugars from the 5' end m3 r94 m3, linkages s3 o93 s3 (s phosphorothioate, o phosphodiester), T or U not given here) guide: GUCGACAUGGGGCAACUUCAGUUUUAGAGCUAGAAAUAGCAAGUUAAAAUAAGGCUAGUCCGUUAUCAACUUGAAAAAGUGGCACCGAGUCGGUGCUUUU",2.38,9.49,30.91,2.32,12.39,32.97
"GA196: PCSK9 gRNA; protospacer GAGTGACCACCGGGAAATCG (SEQ ID NO: 190) (nucleic acid, sugars from the 5' end m3 r94 m3, linkages s3 o93 s3 (s phosphorothioate, o phosphodiester), T or U not given here) guide: GAGUGACCACCGGGAAAUCGGUUUUAGAGCUAGAAAUAGCAAGUUAAAAUAAGGCUAGUCCGUUAUCAACUUGAAAAAGUGGCACCGAGUCGGUGCUUUU",1.09,3.4,27.79,0.75,2.9,17.19
"GA195: PCSK9 gRNA; protospacer ACCACCGGGAAATCGAGGGC (SEQ ID NO: 189) (nucleic acid, sugars from the 5' end m3 r94 m3, linkages s3 o93 s3 (s phosphorothioate, o phosphodiester), T or U not given here) guide: ACCACCGGGAAAUCGAGGGCGUUUUAGAGCUAGAAAUAGCAAGUUAAAAUAAGGCUAGUCCGUUAUCAACUUGAAAAAGUGGCACCGAGUCGGUGCUUUU",0.69,4.77,18.78,3.58,13.3,12.57
